Test results from the Human Domainome abundance scans (Beltran et al. 2025).
± gives the uncertainty stated by the source.

B1: Ras GTPase-activating protein 1, residues 281 to 341; numbered along this chain, P20936 (parent)
chain: RRRVRAILPYTKVPDTDEISFLKGDMFIVHNELEDGWMWVTNLRTDEQGLIVEDLVEEVGR

Variants of: B1
Assay: abundance fitness (aPCA) (normalised: wild type 0, dead -1); higher = more abundant; growth selection in yeast, the domain comes from the species named
Conditions: Homo sapiens

Row | Variant | abundance fitness
1 | RRRVRAILPYTKVPDTDEISFLKGDMFIVHNELEDGWMWVTNLRTYEQGLIVEDLVEEVGR [D46Y] | -0.098 ± 0.025
2 | RRRVRAILPYTKVPDTDEISFLKGDMFIVHDELEDGWMWVTNLRTDEQGLIVEDLVEEVGR [N31D] | 0.046 ± 0.033
3 | RRRVRAILPYTKVPVTDEISFLKGDMFIVHNELEDGWMWVTNLRTDEQGLIVEDLVEEVGR [D15V] | -0.577 ± 0.03
4 | RRRVRAILPYTKVPDTDEISFLKGDMFRVHNELEDGWMWVTNLRTDEQGLIVEDLVEEVGR [I28R] | -0.206 ± 0.021
5 | RRRVRAILPYTKVPDTDEISFLKGDMFIVHNELEDGWMWSTNLRTDEQGLIVEDLVEEVGR [V40S] | -0.826 ± 0.036
6 | RRRVRAILPYTKVPDTDEISFLKGDMFIVHVELEDGWMWVTNLRTDEQGLIVEDLVEEVGR [N31V] | -0.159 ± 0.028
7 | RRRVRAILPYTKVPDTDEISFLKGDMFIVHNELEQGWMWVTNLRTDEQGLIVEDLVEEVGR [D35Q] | 0.007 ± 0.07
8 | RRRVRAILRYTKVPDTDEISFLKGDMFIVHNELEDGWMWVTNLRTDEQGLIVEDLVEEVGR [P9R] | -0.311 ± 0.035
9 | RRRVRAIDPYTKVPDTDEISFLKGDMFIVHNELEDGWMWVTNLRTDEQGLIVEDLVEEVGR [L8D] | -0.149 ± 0.033
10 | RRRVRAILPYTKVPDTDEISFLKGDMFIVHNELEDGWMWVTNLRTDEQGLIVKDLVEEVGR [E53K] | 0.01 ± 0.054
11 | RRRVRAILPYTKVPDTDEISFLKGDMFIVHNELEDGWMMVTNLRTDEQGLIVEDLVEEVGR [W39M] | -0.094 ± 0.03
12 | RRRVRAILPYTKVPDTDEISFLKGDMFIVHNELEDGWMWVTNLRTDEQGLIVEDAVEEVGR [L55A] | 0.032 ± 0.032
13 | RRRVRAILPYTKVPDTDEISFLKGDMFIVHNELEDGWMWGTNLRTDEQGLIVEDLVEEVGR [V40G] | -0.547 ± 0.029
14 | RRRVRAILPYTKVPDTDEISFLKGDMFIVHNELEDGWPWVTNLRTDEQGLIVEDLVEEVGR [M38P] | -0.867 ± 0.098
15 | RNRVRAILPYTKVPDTDEISFLKGDMFIVHNELEDGWMWVTNLRTDEQGLIVEDLVEEVGR [R2N] | -0.099 ± 0.028
16 | RRRVRAILPYTKVPDTDEISFLKGDMFIVHNELEDGWMWVTNLRTDEQGLTVEDLVEEVGR [I51T] | -0.784 ± 0.054
17 | RRRVRAILPYTKVPDTDEISFLKGDMFIVHNELEDGWMWVTNLRTDEQGLIVEDLGEEVGR [V56G] | -0.85 ± 0.046
18 | RRRVRAILPYTKVPDTDEISFLKGDMFIVHNEYEDGWMWVTNLRTDEQGLIVEDLVEEVGR [L33Y] | -0.051 ± 0.027
19 | RRRVRAILPYTKVPDTDEISFLKGDMFIVHNELEDGWMWVTNLRTDEQGLIVHDLVEEVGR [E53H] | -0.003 ± 0.032
20 | RRRVRAILPYTKVPDTDEISFLKGDMFIVHNELEDGWMWVTNLRTREQGLIVEDLVEEVGR [D46R] | 0.019 ± 0.028
21 | RRRVRAILPYTKVPDTDEISFLKGDMFIVHNELEDGWMWVTNLRTDTQGLIVEDLVEEVGR [E47T] | -0.263 ± 0.031
22 | RRRVRAILPYTKVPDTDEISFLKGDMFIVHNELEDGWMWVTNLRTDEQGLIVEDLNEEVGR [V56N] | -0.874 ± 0.056

Row | Variant | abundance fitness
23 | RRRVRAILPYTKVPDTDEISFLKGDMFIVHNELEDGWMWVTNLRTDEQGLIVETLVEEVGR [D54T] | 0.016 ± 0.051
24 | RRRVRACLPYTKVPDTDEISFLKGDMFIVHNELEDGWMWVTNLRTDEQGLIVEDLVEEVGR [I7C] | -0.231 ± 0.029
25 | RRRVRAILPYTKVPDTDEISFLKGDMFIVHNELEDGWMWVTNLRTDEQGLIVEELVEEVGR [D54E] | -0.069 ± 0.087
26 | RRKVRAILPYTKVPDTDEISFLKGDMFIVHNELEDGWMWVTNLRTDEQGLIVEDLVEEVGR [R3K] | -0.01 ± 0.064
27 | RRRVRAILPYTKVPDTDEIHFLKGDMFIVHNELEDGWMWVTNLRTDEQGLIVEDLVEEVGR [S20H] | -0.977 ± 0.08
28 | RRRVRAILPYTKVPDTDEYSFLKGDMFIVHNELEDGWMWVTNLRTDEQGLIVEDLVEEVGR [I19Y] | -0.86 ± 0.043
29 | RRRVRAILPYTKVPDTDEMSFLKGDMFIVHNELEDGWMWVTNLRTDEQGLIVEDLVEEVGR [I19M] | -0.316 ± 0.048
30 | RRRVRAILPYTKVPDTDEISFLKGDMFIVHNELEDGWMWVTNLRTDEQGLIVEDLVEEVNR [G60N] | -0.006 ± 0.065
31 | RRRVRAILPATKVPDTDEISFLKGDMFIVHNELEDGWMWVTNLRTDEQGLIVEDLVEEVGR [Y10A] | -0.588 ± 0.088
32 | RRRVRAILPYTKVPDTDEISFLKGDMFIVHNELEDGWMWVTVLRTDEQGLIVEDLVEEVGR [N42V] | -0.963 ± 0.049
33 | RRRVRAILPYTKVPDTDEISFLKGDMFIVHNELFDGWMWVTNLRTDEQGLIVEDLVEEVGR [E34F] | -0.238 ± 0.031
34 | RRRVRAILPYTKVPDTDEISFLKGDMFIVHNELEDGWMWVTNLRTDEQGLIVEDLVERVGR [E58R] | -0.171 ± 0.035
35 | RRRVRAILPYTKVPDTDEISFLKGDMFIVHNELEDGWMWVTNLRTDEQGLIVEDLVEEVGA [R61A] | 0.067 ± 0.051
36 | RRRVRAILPYTTVPDTDEISFLKGDMFIVHNELEDGWMWVTNLRTDEQGLIVEDLVEEVGR [K12T] | -0.7 ± 0.048
37 | RRRVRAINPYTKVPDTDEISFLKGDMFIVHNELEDGWMWVTNLRTDEQGLIVEDLVEEVGR [L8N] | -0.102 ± 0.028
38 | RRRVRAILPYTKVPDTDEISFLKGDMFIVHNELEDLWMWVTNLRTDEQGLIVEDLVEEVGR [G36L] | -0.6 ± 0.057
39 | RRRVRAILPYTKVPDTDEISFLKGDMFIVHNPLEDGWMWVTNLRTDEQGLIVEDLVEEVGR [E32P] | -0.35 ± 0.044
40 | RRRVRAILPYTKVPDTDEISFLKGDMFIVHCELEDGWMWVTNLRTDEQGLIVEDLVEEVGR [N31C] | -0.129 ± 0.027
41 | RRRVRAILPYTKVPDTDEISFLKGDMFIVHNELEDGWMWVTNLRTPEQGLIVEDLVEEVGR [D46P] | -0.864 ± 0.072
42 | RRRVRAILPYTKVPDTDEISFLKGDMFIVHNELEDGWMWVTNLRTDEQGLIVEDLVELVGR [E58L] | -0.348 ± 0.033
43 | RRRVRAILPYTKVPDTDEISFLKGDMFIVHNELEDGWMWVTNLRTDEQGLIVEDLVEEMGR [V59M] | -0.027 ± 0.047
